Patent publication US20140242093A1, “METHODS AND COMPOSITIONS FOR MODULATING THE INNATE IMMUNE RESPONSE AND/OR MYOGENESIS IN A MAMMALIAN SUBJECT” (FRED HUTCHINSON CANCER RESEARCH CENTER, priority 2011, published 2014)

System: control human primary myoblasts
Experiment: Expression microarray of primary myoblasts transduced with lentivirus carrying DUX4-fl, DUX4-s or GFP
Method: Primary human myoblasts were collected and cultured as previously described (Snider et al., 2010). Primary myoblasts were maintained at or below 70% confluency for proliferation. For differentiation, cells were allowed to reach 95-100% confluency in growth medium. Once confluency was reached, the cells were changed to differentiation medium (F10 media supplemented with 1% horse serum, 10 μg/mL insulin, and 10 μg/mL transferrin, penicillin/streptomycin) and maintained for 4 days. Human RD cells were grown in DMEM in 10% bovine calf serum (Hyclone) and penicillin/streptomycin. The primary myoblasts were transduced with lentivirus carrying DUX-fl, DUX4- or GFP (MOI=15).
Expression microarrays were performed on the transduced cells at 24 hours after transduction as follows. […] Samples were analyzed by Illumina Human Whole Genome microarrays. Probe intensities were corrected, normalized, and summarized by the Lumi package of Bioconductor (Du et al., 2008). Differentially expressed genes were identified by the LIMMA package of Bioconductor (Wettenhall and Smyth, 2004). Gene set enrichment analysis (GSEA) was performed using the Bioconductor GOstats package (Falcon and Gentleman, 2007).

B1: DUX4-s: short splice form of DUX4 (SEQ ID NO:112), keeps the double-homeobox domains, lacks the C-terminal activation domain (protein, listed as Homo sapiens)
chain: MALPTPSDSTLPAEARGRGRRRRLVWTPSQSEALRACFERNPYPGIATRERLAQAIGIPEPRVQIWFQNERSRQLRQHRRESRPWPGRRGPPEGRRKRTAVTGSQTALLLRAFEKDRFPGIAAREELARETGLPESRIQIWFQNRRARHPGQGGRAPAQV
MYBPHL expression fc (cultured human skeletal muscle): −0.5205 | MYF5 expression fc (cultured human skeletal muscle): 0.291 | MYH13 expression fc (cultured human skeletal muscle): −1.541 | NACC2 expression fc (cultured human skeletal muscle): 0.9823 | NFIL3 expression fc (cultured human skeletal muscle): 0.3195 | NFKB1 expression fc (cultured human skeletal muscle): 0.05546 | NFKBIZ expression fc (cultured human skeletal muscle): −0.2644 | NINJ1 expression fc (cultured human skeletal muscle): 0.2107 | NPTX2 expression fc (cultured human skeletal muscle): 0.122 | NRXN2 expression fc (cultured human skeletal muscle): −0.2444 | NT5E expression fc (cultured human skeletal muscle): 0.489 | OCEL1 expression fc (cultured human skeletal muscle): −0.0991 | P2RX6 expression fc (cultured human skeletal muscle): −0.7432 | PARP3 expression fc (cultured human skeletal muscle): 0.1606 | PCK2 expression fc (cultured human skeletal muscle): 0.4194 | PCTK3 expression fc (cultured human skeletal muscle): 0.5932 | PDK4 expression fc (cultured human skeletal muscle): 0.02699 | PDPN expression fc (cultured human skeletal muscle): −0.2902 | PFKFB4 expression fc (cultured human skeletal muscle): 0.4582 | PHF15 expression fc (cultured human skeletal muscle): 0.2557 | PHLDA3 expression fc (cultured human skeletal muscle): 0.1958 | PLA2G4C expression fc (cultured human skeletal muscle): 0.07403 | PLEKHA4 expression fc (cultured human skeletal muscle): 1.33 | PLIN2 expression fc (cultured human skeletal muscle): 0.6107 | PLXNB1 expression fc (cultured human skeletal muscle): −0.09843 | PLXNB2 expression fc (cultured human skeletal muscle): 0.2031 | PPAP2B expression fc (cultured human skeletal muscle): 0.05885 | PPP3CC expression fc (cultured human skeletal muscle): 0.2562 | PRDM1 expression fc (cultured human skeletal muscle): −0.09376 | PRKCD expression fc (cultured human skeletal muscle): 0.349 | PSMB10 expression fc (cultured human skeletal muscle): 0.7464 | PSME2 expression fc (cultured human skeletal muscle): 0.4304 | PTGES expression fc (cultured human skeletal muscle): 0.3116 | PTPRU expression fc (cultured human skeletal muscle): 0.2612 | RALGDS expression fc (cultured human skeletal muscle): 0.0686 | RBCK1 expression fc (cultured human skeletal muscle): 0.326 | RBM43 expression fc (cultured human skeletal muscle): 0.3215 | RCAN1 expression fc (cultured human skeletal muscle): 0.9917 | RELB expression fc (cultured human skeletal muscle): 0.2914 | RGS20 expression fc (cultured human skeletal muscle): 0.08652 | RHBDF2 expression fc (cultured human skeletal muscle): 0.3815 | RRAS expression fc (cultured human skeletal muscle): −0.1908 | RRBP1 expression fc (cultured human skeletal muscle): 0.09904 | RTKN expression fc (cultured human skeletal muscle): −0.2678 | RTTN expression fc (cultured human skeletal muscle): 0.009387 | RUSC1 expression fc (cultured human skeletal muscle): 0.03464 | SERPING1 expression fc (cultured human skeletal muscle): 1.214 | SESN1 expression fc (cultured human skeletal muscle): −0.1133 | SHISA5 expression fc (cultured human skeletal muscle): −0.2735 | SIX5 expression fc (cultured human skeletal muscle): −0.3614 | SLC16A3 expression fc (cultured human skeletal muscle): 0.4873 | SLC22A18 expression fc (cultured human skeletal muscle): −0.05235 | SLC25A28 expression fc (cultured human skeletal muscle): 0.7251 | SLC39A14 expression fc (cultured human skeletal muscle): 0.4801 | SPTLC3 expression fc (cultured human skeletal muscle): 0.2428 | SQSTM1 expression fc (cultured human skeletal muscle): 0.1771 | SRGN expression fc (cultured human skeletal muscle): 0.2031 | STC1 expression fc (cultured human skeletal muscle): 0.8132 | STEAP3 expression fc (cultured human skeletal muscle): −0.291 | SUSD2 expression fc (cultured human skeletal muscle): −2.022 | TAPBP expression fc (cultured human skeletal muscle): 0.474 | TCEA3 expression fc (cultured human skeletal muscle): −0.1206 | TCP11L1 expression fc (cultured human skeletal muscle): 0.7816 | TMEM45A expression fc (cultured human skeletal muscle): 0.4128 | TMEM173 expression fc (cultured human skeletal muscle): 0.3673 | TNFAIP2 expression fc (cultured human skeletal muscle): 0.05713 | TNFRSF1A expression fc (cultured human skeletal muscle): 0.2727 | TNFRSF6B expression fc (cultured human skeletal muscle): 0.00925 | TNFSF13B expression fc (cultured human skeletal muscle): 2.19 | TNS3 expression fc (cultured human skeletal muscle): −0.1648 | TRAF3IP2 expression fc (cultured human skeletal muscle): 0.7299 | TRIP6 expression fc (cultured human skeletal muscle): 0.003438 | TRNP1 expression fc (cultured human skeletal muscle): 0.007844 | TSC22D3 expression fc (cultured human skeletal muscle): 0.2002 | VASN expression fc (cultured human skeletal muscle): 0.2877 | VEZF1 expression fc (cultured human skeletal muscle): −0.6876 | XBP1 expression fc (cultured human skeletal muscle): 0.3357 | ZBTB4 expression fc (cultured human skeletal muscle): 0.002479 | ZC3H12A expression fc (cultured human skeletal muscle): 0.5426 | ZFHX3 expression fc (cultured human skeletal muscle): 0.5029 | ZFP36L2 expression fc (cultured human skeletal muscle): 0.7338 | ZFP90 expression fc (cultured human skeletal muscle): −0.1973 | ZNF337 expression fc (cultured human skeletal muscle): −0.04356 | ZNF395 expression fc (cultured human skeletal muscle): 0.2584 | Log2 Fc AMACR (vs lenti-GFP, 24 h): 0.1 log2 | Log2 Fc ARIH1 (vs lenti-GFP, 24 h): 0.8 log2 | Log2 Fc ARS2 (vs lenti-GFP, 24 h): −0.2 log2 | Log2 Fc CBARA1 (vs lenti-GFP, 24 h): −0.2 log2 | Log2 Fc CD24 (vs lenti-GFP, 24 h): −0.4 log2 | Log2 Fc CSAG3 (vs lenti-GFP, 24 h): 0.1 log2 | Log2 Fc CSE1L (vs lenti-GFP, 24 h): 0.1 log2 | Log2 Fc CWC15 (vs lenti-GFP, 24 h): 0.1 log2 | Log2 Fc CXADR (vs lenti-GFP, 24 h): −0.1 log2 | Log2 Fc CXCR4 (vs lenti-GFP, 24 h): −0.1 log2 | Log2 Fc DBR1 (vs lenti-GFP, 24 h): 0.2 log2 | Log2 Fc DEFB103B (vs lenti-GFP, 24 h): 0.1 log2 | Log2 Fc FBXO33 (vs lenti-GFP, 24 h): 0.2 log2 | Log2 Fc FGFR3 (vs lenti-GFP, 24 h): 0.0 log2 | Log2 Fc FLJ45337 (vs lenti-GFP, 24 h): −0.2 log2 | Log2 Fc GTF2F1 (vs lenti-GFP, 24 h): 0.3 log2 | Log2 Fc HNRNPCL1 (vs lenti-GFP, 24 h): −0.1 log2 | Log2 Fc HOXB2 (vs lenti-GFP, 24 h): 0.0 log2 | Log2 Fc HSPA2 (vs lenti-GFP, 24 h): −0.3 log2 | Log2 Fc ID2 (vs lenti-GFP, 24 h): 0.3 log2 | Log2 Fc IFRD1 (vs lenti-GFP, 24 h): −0.2 log2 | Log2 Fc JUP (vs lenti-GFP, 24 h): −0.1 log2 | Log2 Fc KHDC1L (vs lenti-GFP, 24 h): −0.1 log2 | Log2 Fc MBD3L2 (vs lenti-GFP, 24 h): 0.0 log2 | Log2 Fc MED26 (vs lenti-GFP, 24 h): 0.1 log2 | Log2 Fc MGC10997 (vs lenti-GFP, 24 h): −0.3 log2 | Log2 Fc PABPN1 (vs lenti-GFP, 24 h): −0.3 log2 | Log2 Fc PELI1 (vs lenti-GFP, 24 h): 0.1 log2 | Log2 Fc PNMA6B (vs lenti-GFP, 24 h): −0.2 log2 | Log2 Fc PRAMEF1 (vs lenti-GFP, 24 h): 0.1 log2 | Log2 Fc PVRL3 (vs lenti-GFP, 24 h): 0.4 log2 | Log2 Fc RMRP (vs lenti-GFP, 24 h): 0.1 log2 | Log2 Fc RNGTT (vs lenti-GFP, 24 h): −0.6 log2 | Log2 Fc RPPH1 (vs lenti-GFP, 24 h): 0.2 log2 | Log2 Fc RRN3 (vs lenti-GFP, 24 h): 0.1 log2 | Log2 Fc SFRS2B (vs lenti-GFP, 24 h): −0.3 log2 | Log2 Fc SFRS17A (vs lenti-GFP, 24 h): 0.2 log2 | Log2 Fc SIAH1 (vs lenti-GFP, 24 h): −0.1 log2 | Log2 Fc SLC2A14 (vs lenti-GFP, 24 h): 0.2 log2 | Log2 Fc SLC34A2 (vs lenti-GFP, 24 h): 0.0 log2 | Log2 Fc SNIP1 (vs lenti-GFP, 24 h): −0.2 log2 | Log2 Fc SON (vs lenti-GFP, 24 h): −0.3 log2 | Log2 Fc SPRYD5 (vs lenti-GFP, 24 h): −0.1 log2 | Log2 Fc SPTY2D1 (vs lenti-GFP, 24 h): −0.3 log2 | Log2 Fc TFIP11 (vs lenti-GFP, 24 h): 0.1 log2 | Log2 Fc THOC4 (vs lenti-GFP, 24 h): −0.2 log2 | Log2 Fc TPRX1 (vs lenti-GFP, 24 h): −0.1 log2 | Log2 Fc TRIM23 (vs lenti-GFP, 24 h): 0.6 log2 | Log2 Fc TRIM43 (vs lenti-GFP, 24 h): 0.0 log2 | Log2 Fc USP29 (vs lenti-GFP, 24 h): −0.1 log2 | Log2 Fc ZNF217 (vs lenti-GFP, 24 h): −0.3 log2 | Log2 Fc ZNF705A (vs lenti-GFP, 24 h): −0.1 log2 | Log2 Fc ZNHIT6 (vs lenti-GFP, 24 h): 0.3 log2 | Log2 Fc ZSCAN2 (vs lenti-GFP, 24 h): −0.2 log2 | Log2 Fc ZSCAN4 (vs lenti-GFP, 24 h): 0.0 log2
